From patent US10428140B2, “Anti-EphA4 antibody” (EISAI R&D MANAGEMENT CO., LTD., priority 2015, dated 2019)

How the values were obtained:
[1] = target: T1, mouse EphA4 (binding to mouse Ephrin A1) (Mus musculus, UniProt Q03137); test: Mouse EphA4-mouse ligand binding inhibition ELISA (Ephrin A1-Fc); conditions: mouse EphA4-mouse ligand binding inhibition
T1 construct: made in house; host or cells: HEK293EBNA cells
Protocol: Antibody A obtained in Example 1 was evaluated for its inhibitory activity against the binding between mouse EphA4 and its mouse ligand according to the following steps. Each well of a 96-well plate (Nunc) was coated with an anti-alkaline phosphatase antibody (Thermo Fisher Scientific). After incubation overnight at 4° C., each well was blocked with 1% BlockAce (DS Pharma Biomedical) at room temperature for 1 hour. After washing with 0.05% Tween 20/PBS (Thermo Fisher Scientific) three times, the mouse EphA4 extracellular region-SEAP-His protein obtained by the method of Example 1 was added (final concentration: 10 nM) to each well and incubated at room temperature for 1 hour. After washing three times, ligands and serially diluted antibody A (0, 0.001, 0.003, 0.01, 0.03, 0.1, 0.3, 1,3, 10, 30, 100, 300, and 1000 nM) or a known EphA4 inhibitor KYL peptide (KYLPYWPVLSSL, 0, 0.003, 0.01, 0.03, 0.1, 0.3, 1, 3, 10, 30, and 100 μM, its synthesis was outsourced to Hokkaido System Science) or compound 1 (0, 0.03, 0.1, 0.3, 1,3, 10, 30, 100, 300, and 1000 μM, Formula 1, Matrix Scientific) were added to each well. The ligands used were mouse Ephrin A1-Fc chimera (R&D Systems, final concentration: 20 nM) and mouse Ephrin B2-Fc chimera (R&D Systems, final concentration: 0.6 nM). […] The absorbance at 450 nm was read using a microplate reader (Molecular Devices).

[2] = test system: mouse, rat, monkey, and human EphA4; test: Reactivity ELISA with mouse, rat, monkey, and human EphA4; assay type: binding; conditions: 0.00128-20 μg/mL
Protocol: Mouse, rat, monkey, and human EphA4 extracellular region-Fc-His proteins were prepared according to the following steps. First, according to the method described in Example 1, a monkey EphA4 extracellular region-Fc-His protein expression vector was constructed. The amino acid sequence of monkey EphA4 used in the vector construction is shown in SEQ ID NO: 44, and its extracellular region is shown in SEQ ID NO: 45. Next, HEK293EBNA cells (Life Technologies) were inoculated to a 10-cm dish (Falcon) and cultured at 37° C. for 1 day. The HEK293EBNA cells were transfected with the monkey EphA4 extracellular region-Fc-His protein expression vector or the mouse EphA4, rat EphA4, or human EphA4 extracellular region-Fc-His protein expression vector described in Example 1 using TransIT-LT1 (TAKARA). After incubation (5% CO2, 37° C.) for 4 days, the culture supernatant was recovered and centrifuged at 1500 rpm at room temperature for 5 minutes. […]
Antibody A was evaluated for its binding activity against various Eph receptors according to the following steps.
Each well of a 96-well plate (Nunc) was coated with a donkey anti-mouse IgG antibody (Jackson ImmunoResearch Laboratories). […] The absorbance at 450 nm was read using a microplate reader (PerkinElmer).

T1 sequence (Q03137 with tags, fused parts or gaps): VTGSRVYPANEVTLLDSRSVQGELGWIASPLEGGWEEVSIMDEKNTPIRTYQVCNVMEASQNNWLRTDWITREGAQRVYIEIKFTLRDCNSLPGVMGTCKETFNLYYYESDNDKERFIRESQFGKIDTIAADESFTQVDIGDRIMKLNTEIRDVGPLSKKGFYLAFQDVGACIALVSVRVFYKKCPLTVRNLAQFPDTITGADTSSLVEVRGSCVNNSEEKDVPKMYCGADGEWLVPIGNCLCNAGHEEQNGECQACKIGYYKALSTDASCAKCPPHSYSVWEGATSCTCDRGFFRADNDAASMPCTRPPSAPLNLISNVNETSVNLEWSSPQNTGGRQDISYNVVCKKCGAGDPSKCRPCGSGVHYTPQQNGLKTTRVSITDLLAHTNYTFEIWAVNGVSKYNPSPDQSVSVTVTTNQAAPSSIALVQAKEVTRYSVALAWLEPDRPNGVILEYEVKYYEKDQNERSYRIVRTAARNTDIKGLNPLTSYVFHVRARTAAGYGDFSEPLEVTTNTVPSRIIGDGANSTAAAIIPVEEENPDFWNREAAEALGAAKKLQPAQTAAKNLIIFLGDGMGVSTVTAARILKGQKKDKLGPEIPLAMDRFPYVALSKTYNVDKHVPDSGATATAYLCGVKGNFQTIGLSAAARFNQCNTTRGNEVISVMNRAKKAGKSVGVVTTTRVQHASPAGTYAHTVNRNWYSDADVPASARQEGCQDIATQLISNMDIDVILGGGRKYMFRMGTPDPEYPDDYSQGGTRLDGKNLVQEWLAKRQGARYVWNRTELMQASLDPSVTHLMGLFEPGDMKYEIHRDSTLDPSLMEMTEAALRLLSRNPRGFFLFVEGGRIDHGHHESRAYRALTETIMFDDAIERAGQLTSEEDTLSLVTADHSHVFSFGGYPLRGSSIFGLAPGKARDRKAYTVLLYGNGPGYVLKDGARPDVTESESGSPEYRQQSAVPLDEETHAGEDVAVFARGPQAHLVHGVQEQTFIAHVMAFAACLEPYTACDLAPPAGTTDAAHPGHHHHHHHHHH

activity relative to KYL peptide (times stronger) [1]: ≥ 1,000 times
B1: antibody A: mouse anti-EphA4 monoclonal antibody, IgG1/κ; heavy chain variable region SEQ ID NO: 11, light chain variable region SEQ ID NO: 13 (antibody, listed as Mus musculus, V domains shown)
VH: QIQLVQSGPELKKPGETVKISCKASGYTFTDYSMHWVKQAPGKGLKWMGWINTETGEPTYADDFKGRFAFSLETSASTAYLQINNLKNEDTATYFCARIPLYYYGSRYWYFDVWGAGTTVTVSS
VL: DIQMTQSPASLSVSVGETVTITCRASENIYRNLAWYQQKQGKSPQLLVYAATNLADGVPSRFSGSGSGTQYSLKINSLQSEDFGSYYCQHFWGTPWTFGGGTKLEIK
reaction activity against mouse, rat, monkey, and human EphA4 (in words) [2]: equivalent reaction activity against all of mouse, rat, monkey, and human EphA4
